Source: US20260167721A1 (ABLEXIS, published 2026)
Where a chain is given by its changes, count along the chain named.

B1: ABL-CD3-48 (antibody, V domains shown)
VH: EVQLVESGGGLVKPGGSLRLSCAASGFTFSSYTMNWVRQAPGKGLEWVSSISGSGSYIYYADSVKGRFTISRDNAKNSLYLQMNSLRAEDTAVYYCAREPPTLGMDYWGQGTLVTVSS
VL: NFMLTQPHSVSESPGKTVTISCTRSSGSIASNYVQWYQQRPGSSPTTVIYEDNQRPSGVPDRFSGSIDSSSNSASLTISGLKTEDEADYYCQSFDSSNRVFGGGTKLTVL
notes: Chimeric hybridoma mAb: human V, CH1, upper hinge; mouse middle hinge, CH2, CH3
B2: ABL-CD3-55 (antibody, V domains shown)
VH: EVQLVESGGGLVKPGGSLRLSCAASGFTFSIYSMNWVRQAPGKGLEWVSSISSGSSYIYYADSVKGRFTISRDNAKSSLFLQMNSLRAEDTAVYYCAREKRELLFDYWGQGTLVTVSS
VL: B1 VL with S69R, F94Y
notes: as for B1
B3: ABL-CD3-28 (antibody, V domains shown)
VH: QVQLQQSGPGLVKPSQTLSLTCAISGDSVSSNSVAWNWIRQSPSRGLEWLGRTYYRSKWYNECAGSVKSRITINPDTSKNQFSLQLNSVTPEDTAIYYCARERKWELFLDYWGQGTLVTVSS
VL: B1 VL with R99V
notes: as for B1
B4: ABL-CD3-53 (antibody, V domains shown)
VH: EVQLVESGGGLVKPGGSLRLSCAASGFTFSSYTMNWVRQAPGKGLEWVSSITTSSSYIYYADSVKGRFTISRDNAKNSLYLQMNSLRAEDTAVYYCARVTFDAFDIWGQGTMVTVSS
VL: B1 VL with F94Y
notes: as for B1
B5: ABL-CD3-20 (antibody, V domains shown)
VH: B2 VH with F27L, I31T, G54S, S55G, I58V, I70M, S77N, F80Y, K100R
VL: B1 VL with T47S, F94Y, S96R
notes: as for B1
B6: ABL-CD3-54 (antibody, V domains shown)
VH: B2 VH with I31S, S53R, G54S, S56R, Y59F, K65R, S77N, F80Y
VL: B1 VL with F2S, N32Y
notes: as for B1
B7: ABL-CD3-24 (antibody, V domains shown)
VH: B1 VH with A23V, G53R, I58K, Y60N, A88V
VL: B1 VL with D95Y, K106E
notes: as for B1
B8: ABL-CD3-12 (antibody, V domains shown)
VH: B1 VH with G53R, G55S, I58K, T115I
VL: B1 VL with S26N, A30T, S96N, G103E, G104K
notes: as for B1
B9: ABL-CD3-47 (antibody, V domains shown)
VH: EVQLVESGGGLVQPGGSLRLSCAASGFTFSRYSMNWVRQAPGKGLEWVSYISRSSTTIYYADSVKGRFTISRDNAKNSLYLQMNSLRDEDAAVYYCARERWELLYFDYWGQGTLVTVSS
VL: B1 VL with N32K, F94Y, D95Y, S97N
notes: as for B1
B10: ABL-CD3-50 (antibody, V domains shown)
VH: B3 VH with Y55S, E62D, C63Y, G65V, Q85E, I96V
VL: B1 VL with S43I, S96T, R99V
notes: as for B1
B11: ABL-CD3-26 (antibody, V domains shown)
VH: B1 VH with Q3H, T33S, G53S, G55S, S56T, P101R, T112I
VL: B1 VL with Q54H, Y90F
notes: as for B1
B12: ABL-CD3-10 (antibody, V domains shown)
VH: B3 VH with S31C, Y60H, C63Y, G65V, T72N, N74K, F82V, N87K, I96V
VL: B1 VL with V48M, F94L, N98S, R99V
notes: as for B1
B13: ABL-CD3-7 (antibody, V domains shown)
VH: B1 VH with S31R, T33S, E46K, G53S, I58K
VL: B1 VL with S96N
notes: as for B1
B14: ABL-CD3-56 (antibody, V domains shown)
VH: EVQLVESGGGLVKPGGSLRLSCVASGFTFSRYSMNWVRQAPGKGLEWVSSISSSSRYTYYADSLKGRFIMSRDNAKNSLFLQMNSLRAEDTAVYYCARNLYNALDYWGQGTLVTVSS
VL: FMLTQPHSVSESPGKTVTISCTRSSGSIASNYVQWYQQRPGSSPTTVIYEDNQRPSGVPDRFSGSIDSSSNSASLTISGLQTEDEADYYCQSYDSSNRVFGGGTKLTVL
notes: as for B1
B15: CD3 × CD33-BspAb36 (bispecific antibody)
chain 1: not shown
chain 2: EVQLVQSGAEVKKPGSSVKVSCKASGYTITDSNIHWVRQAPGQSLEWIGYIYPYNGGTDYNQKFKNRATLTVDNPTNTAYMELSSLRSEDTAFYYCVNGNPWLAYWGQGTLVTVSSASTKGPSVFPLAPSSKSTSGGTAALGCLVKDYFPEPVTVSWNSGALTSGVHTFPAVLQSSGLYSLSSVVTVPSSSLGTQTYICNVNHKPSNTKVDKRVEPKSCDKTHTCPPCPAPEFEGGPSVFLFPPKPKDTLMISRTPEVTCVVVDVSHEDPEVKFNWYVDGVEVHNAKTKPREEQYNSTYRVVSVLTVLHQDWLNGKEYKCKVSNKALPASIEKTISKAKGQPREPQVCTLPPSREEMTKNQVSLSCAVKGFYPSDIAVEWESNGQPENNYKTTPPVLDSDGSFFLVSKLTVDKSRWQQGNVFSCSVMHEALHNRFTQKSLSLSPGK
chain 3: DIQLTQSPSTLSASVGDRVTITCRASESLDNYGIRFLTWFQQKPGKAPKLLMYAASNQGSGVPSRFSGSGSGTEFTLTISSLQPDDFATYYCQQTKEVPWSFGQGTKVEVKRTVAAPSVFIFPPSDEQLKSGTASVVCLLNNFYPREAKVQWKVDNALQSGNSQESVTEQDSKDSTYSLSSTLTLSKADYEKHKVYACEVTHQGLSSPVTKSFNRGEC
B16: CD3 × CD33-BspAb42 (bispecific antibody)
chain 1: EVQLVESGGGLVKPGGSLRLSCAASGFTLSSYSMNWVRQAPGKCLEWVSSISRSGSYIYYADSVKGRFTISRDNAKNSLYLQMNSLRAEDTAVYYCAREKWELLYFDYWGQGTLVTVSSGGGGSGGGGSGGGGSGGGGSNFMLTQPHSVSESPGKTVTISCTRSSGSIASNYVQWYQQRPGSSPTTVIYEDNQRPSGVPDRFSGSIDSSSNSASLTISGLKTEDEADYYCQSYDSSNRVFGCGTKLTVLDKTHTCPPCPAPEFEGGPSVFLFPPKPKDTLMISRTPEVTCVVVDVSHEDPEVKFNWYVDGVEVHNAKTKPREEQYNSTYRVVSVLTVLHQDWLNGKEYKCKVSNKALPASIEKTISKAKGQPREPQVYTLPPCREEMTKNQVSLWCLVKGFYPSDIAVEWESNGQPENNYKTTPPVLDSDGSFFLYSKLTVDKSRWQQGNVFSCSVMHEALHNHYTQKSLSLSPGK
chain 2: B15 chain 2
chain 3: B15 chain 3
B17: CD3 × CD33-BspAb38 (bispecific antibody)
chain 1: not shown
chain 2: B15 chain 2
chain 3: B15 chain 3
B18: CD3 × CD33-BspAb39 (bispecific antibody)
chain 1: not shown
chain 2: B15 chain 2
chain 3: B15 chain 3

The binders below were run against T1, recombinant human CD3 epsilon/gamma heterodimer (human, UniProt P07766 23-126; P09693 23-116) (assay: Octet BLI, mAb on FAB2G sensor, hCD3 E/G 200-50 nM; R^2 0.99).
T1 construct: Recombinant protein in solution (200-50 nM) in the Octet assay; also called hCD3 E/G
T1 sequence (P07766 23-126, chain 1 of 2): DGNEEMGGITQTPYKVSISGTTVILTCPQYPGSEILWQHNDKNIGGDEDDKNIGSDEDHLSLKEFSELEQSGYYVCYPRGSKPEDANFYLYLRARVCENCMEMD
T1 sequence (P09693 23-116, chain 2 of 2): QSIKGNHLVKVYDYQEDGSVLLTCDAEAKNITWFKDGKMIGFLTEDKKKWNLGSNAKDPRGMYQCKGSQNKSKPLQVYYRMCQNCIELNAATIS
For B1, the Kd was 17.9 nM, the Response was 1.03 and the koff was 0.00179 s⁻¹. For the same binder, the kon was 100000 M⁻¹ s⁻¹.
With B2 the Kd was 141 nM, the Response was 0.08 and the koff was 0.0894 s⁻¹. The kon was 636000 M⁻¹ s⁻¹.
B3 was tested, and the Kd was 5.6 nM, the Response was 0.77 and the koff was 0.000798 s⁻¹. For the same binder, the kon was 143000 M⁻¹ s⁻¹.
In the case of B4, the Kd is reported as 88.7 nM, the Response is reported as 0.4 and the koff is reported as 0.00714 s⁻¹. For the same binder, the kon was 80500 M⁻¹ s⁻¹.
Binder B5 has a Kd of 18.3 nM, a Response of 0.45 and a koff of 0.00379 s⁻¹. For the same binder, the kon was 207000 M⁻¹ s⁻¹.
Work on B6 yielded a Kd of 19.3 nM, a Response of 0.87 and a koff of 0.00258 s⁻¹. The kon was 134000 M⁻¹ s⁻¹.
Work on B7 yielded a Kd of 8.48 nM, a Response of 0.89 and a koff of 0.00134 s⁻¹. It also gave a kon of 158000 M⁻¹ s⁻¹.
B8 was tested, and the Kd was 10.5 nM, the Response was 1.14 and the koff was 0.00124 s⁻¹. The kon was 118000 M⁻¹ s⁻¹.
B9 was tested, and the Kd was 36.2 nM, the Response was 0.43 and the koff was 0.00785 s⁻¹. It also gave a kon of 217000 M⁻¹ s⁻¹.
For B10, the Kd was 12.6 nM, the Response was 0.6 and the koff was 0.00247 s⁻¹. For the same binder, the kon was 196000 M⁻¹ s⁻¹.
For B11, the Kd was 9.31 nM, the Response was 1.01 and the koff was 0.00123 s⁻¹. For the same binder, the kon was 132000 M⁻¹ s⁻¹.
B12 showed a Kd of 2.41 nM, a Response of 0.46 and a koff of 0.00039 s⁻¹. For the same binder, the kon was 162000 M⁻¹ s⁻¹.
For B13, the Kd was 8.42 nM, the Response was 0.81 and the koff was 0.00142 s⁻¹. For the same binder, the kon was 169000 M⁻¹ s⁻¹.
Work on B14 yielded a Kd of 0.94 nM, a Response of 1.3 and a koff of 0.000102 s⁻¹. It also gave a kon of 109000 M⁻¹ s⁻¹.

Each binder was assayed against recombinant CD3 proteins (assay: Octet (BLI), bispecific antibody against recombinant CD3 proteins).
For B15, the Kd was 205 nM, the Response was 0.42 and the koff was 0.00334 s⁻¹. The kon was 16300 M⁻¹ s⁻¹.
With B16 the Kd was 133 nM, the Response was 0.51 and the koff was 0.0186 s⁻¹. It also gave a kon of 139000 M⁻¹ s⁻¹.
In the case of B17, the Kd is reported as 81 nM, the Response is reported as 0.28 and the koff is reported as 0.0203 s⁻¹. For the same binder, the kon was 250000 M⁻¹ s⁻¹.
B18 was tested, and the Kd was 299 nM, the Response was 0.1 and the koff was 0.117 s⁻¹. For the same binder, the kon was 391000 M⁻¹ s⁻¹.

The binders below were run against T2, recombinant human CD3 epsilon/delta heterodimer (human, UniProt P07766 23-126; P04234 22-105) (assay: Octet BLI, mAb on FAB2G sensor, hCD3 E/D 200-50 nM; R^2 0.99).
T2 construct: Recombinant protein in solution (200-50 nM) in the Octet assay; also called hCD3 E/D; human CD3E/D
T2 sequence (P07766 23-126, stated change not applied, chain 1 of 2): as the sequence (P07766 23-126, chain 1 of 2) above
T2 sequence (P04234 22-105, stated change not applied, chain 2 of 2): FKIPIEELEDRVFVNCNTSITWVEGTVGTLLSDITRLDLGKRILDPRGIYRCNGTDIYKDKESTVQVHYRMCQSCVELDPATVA
B1 gave a Kd of 11.5 nM, a Response of 1.17 and a koff of 0.00114 s⁻¹. For the same binder, the kon was 99300 M⁻¹ s⁻¹.
With B2 the Kd was 183 nM, the Response was 0.13 and the koff was 0.069 s⁻¹. The kon was 376000 M⁻¹ s⁻¹.
B3 showed a Kd of 7.88 nM, a Response of 0.77 and a koff of 0.00133 s⁻¹. The kon was 168000 M⁻¹ s⁻¹.
With B4 the Kd was 146 nM, the Response was 0.24 and the koff was 0.0199 s⁻¹. The kon was 136000 M⁻¹ s⁻¹.
With B5 the Kd was 10.5 nM, the Response was 0.51 and the koff was 0.00229 s⁻¹. It also gave a kon of 219000 M⁻¹ s⁻¹.
B6 was tested, and the Kd was 17.6 nM, the Response was 0.87 and the koff was 0.00267 s⁻¹. The kon was 152000 M⁻¹ s⁻¹.
Work on B7 yielded a Kd of 5.78 nM, a Response of 0.93 and a koff of 0.00101 s⁻¹. The kon was 175000 M⁻¹ s⁻¹.
B8 was tested, and the Kd was 10.6 nM, the Response was 1.21 and the koff was 0.00144 s⁻¹. It also gave a kon of 136000 M⁻¹ s⁻¹.
B9 was tested, and the Kd was 16.9 nM, the Response was 0.62 and the koff was 0.00291 s⁻¹. The kon was 172000 M⁻¹ s⁻¹.
In the case of B10, the Kd is reported as 21 nM, the Response is reported as 0.57 and the koff is reported as 0.0047 s⁻¹. It also gave a kon of 224000 M⁻¹ s⁻¹.
B11 gave a Kd of 6.66 nM, a Response of 1.03 and a koff of 0.00104 s⁻¹. For the same binder, the kon was 156000 M⁻¹ s⁻¹.
Binder B12 has a Kd of 2.47 nM, a Response of 0.52 and a koff of 0.00046 s⁻¹. The kon was 186000 M⁻¹ s⁻¹.
Binder B13 has a Kd of 4.14 nM, a Response of 0.86 and a koff of 0.000786 s⁻¹. For the same binder, the kon was 190000 M⁻¹ s⁻¹.
B14 was tested, and the Kd was 3.96 nM, the Response was 1.24 and the koff was 0.000522 s⁻¹. The kon was 132000 M⁻¹ s⁻¹.
